The target in one assay is LMP7-Myc, P28062-2. Put plainly: co-IP (anti-Flag IP, anti-Myc IB), band intensity quantified. As to conditions: 293T cells cotransfected for 24 h; parent: 100; read off a plot.
In another assay the target is LMP7-His (biotinylated) (UniProt P28062). Put plainly: BLI; biotinylated LMP7 on streptavidin biosensors; GST or Nef-GST in solution; PBS; 1:1 binding model.
Another assay has as its target proLMP7-Flag (UniProt P28062). In words: co-IP; HEK293T cotransfected 24 h with Nef-HA constructs and LMP7-Flag constructs; RIPA lysates; anti-Flag antibody and protein G-Sepharose at 4°C overnight; blot with anti-HA.
Assay [1] addresses Nef(1 to 115)-(L112A)-GFP-Flag (HIV-1 (NL4-3)) (UniProt P03406). In words: co-IP; HEK293T cotransfected 24 h with LMP7-Myc and GFP-Flag or Nef(1 to 115)-GFP-Flag constructs; anti-Flag IP; blot with anti-Myc.
The target in assay [2] is Nef(1 to 115)-(Y115A)-GFP-Flag (HIV-1 (NL4-3)) (UniProt P03406). The description is as above.
In assay [3] the target is Nef(1 to 115)-(L112A/Y115A)-GFP-Flag (HIV-1 (NL4-3)) (UniProt P03406). The assay is described as above.

This note sets out measurements from publication PMC7593969.

Broadly, the Kd is a measure of binding affinity in units of concentration. Low values mean higher affinity, high ones lower affinity.

Sequence of LMP7-Myc, P28062-2 (P28062 other isoform, or with tags, fused parts or gaps): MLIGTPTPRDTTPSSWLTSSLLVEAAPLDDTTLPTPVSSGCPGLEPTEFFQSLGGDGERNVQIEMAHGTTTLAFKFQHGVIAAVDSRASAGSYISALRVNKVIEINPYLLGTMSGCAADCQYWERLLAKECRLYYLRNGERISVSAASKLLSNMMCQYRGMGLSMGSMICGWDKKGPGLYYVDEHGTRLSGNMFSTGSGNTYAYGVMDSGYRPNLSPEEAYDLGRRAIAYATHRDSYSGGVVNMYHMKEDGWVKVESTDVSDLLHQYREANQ

In the case of “Nef(1 to 115)-GFP-Flag (from UniProt P03406) I109A; L110A; D111A; L112A”, in the assay with LMP7-Myc, P28062-2, the percent of parent came out at 28%.
For “Nef(1 to 115)-GFP-Flag (from UniProt P03406) 101-104A”, in the assay with LMP7-Myc, P28062-2, the percent of parent was found to be 53%.
“Nef(1 to 115)-GFP-Flag (from UniProt P03406) I109A”: the percent of parent with LMP7-Myc, P28062-2 is 60%.
With “Nef-GST (from UniProt P03406 1-206) (natural protein)”, in the assay with LMP7-His (biotinylated), the BLI wavelength shift stood at 71.1 pm and the Kd stood at 735 nM.
In the case of “Nef(1 to 115)-GFP-Flag (from UniProt P03406) L110A”, the percent of parent with LMP7-Myc, P28062-2 turned out to be 60%.
On the same count and under the same terms, then “Nef(1 to 115)-GFP-Flag (from UniProt P03406) D111A”, with 130%.
Still for that read-out and setting: then “Nef(1 to 115)-GFP-Flag (from UniProt P03406) W113A”, with 97%; and “Nef(1 to 115)-GFP-Flag (from UniProt P03406) 105-108A”, with 120%.
As for “Nef(1 to 130)-HA (from UniProt P03406 1-130) (domain or fragment)”, in the assay with proLMP7-Flag, the strength of the interaction (co-IP band) relative to Nef(1 to 115) was determined as 40 % higher and the strength of the interaction (co-IP band) relative to Nef(1 to 149) turned out to be 20 % stronger.
With “Nef(1 to 115)-GFP-Flag (from UniProt P03406) W113A; I114A; Y115A”, the percent of parent with LMP7-Myc, P28062-2 was determined as 31%.
With “LMP7-Myc (from UniProt P28062-2 1-272) (natural protein)”, the relative co-IP band intensity (Nef(1 to 115) = 100%) in assay [1] was 19%; in assay [2], 14%; in assay [3], 1.4%.
In the case of “Nef(1 to 115)-GFP-Flag (from UniProt P03406) I114A”, the percent of parent in the assay with LMP7-Myc, P28062-2 was 47%.
